Data as given in patent US20200199202A1 (published 2020).

Legend:
NHP NPC1-C = NHP NPC1-C (Colobus guereza); test: BLI; pH 5.5
[1] = biological target: T1, soluble human NPC1 domain C protein (UniProt O15118 372-622); test: BLI; pH 5.5
T1 chain: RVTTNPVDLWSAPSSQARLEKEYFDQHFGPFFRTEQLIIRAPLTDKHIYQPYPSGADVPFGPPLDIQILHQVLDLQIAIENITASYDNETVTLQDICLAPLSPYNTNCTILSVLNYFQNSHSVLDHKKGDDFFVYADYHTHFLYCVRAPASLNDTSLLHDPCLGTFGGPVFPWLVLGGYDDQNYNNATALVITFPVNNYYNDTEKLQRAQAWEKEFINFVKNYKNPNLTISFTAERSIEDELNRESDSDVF

[2] = biological target: T1, soluble human NPC1 domain C protein; test: BLI; pH 7.5
[3] = biological target: T1, soluble human NPC1 domain C protein; test: BLI; pH 7.5

Binder | Kd (NHP NPC1-C) [pM] | Kd [1] [pM] | Kd [2] [pM] | Kd [3] [pM]
548 (antibody, V domains shown) VH: EVQLQQSGAELVKPGASVKLSCTASGFNIKDTYMHWVKQRPEEGLEWIGRIDPADGNTEYVPKFQGKATITADTFSNTVYLQLSGLTSEDTAVYYCSRGYYWGQGTTLTVSS VL: DIQMTQSPASLSASVGETVTITCRASENIYSYLAWYQQKQGKSPQLLVYNAKTLAEGVPSRFSGSGSGTQFSLKINSLQPEDFGIYYCQHHYGSPWAFGGGTKLEIK | < 1 | – | – | –
mAb 548 (anti-human NPC1 domain C monoclonal antibody) (antibody, V domains shown) VH: EVQLQQSGAELVKPGASVKLSCTASGFNIKDTYMHWVKQRPEEGLEWIGRIDPADGNTEYVPKFQGKATITADTFSNTVYLQLSGLTSEDTAVYYCSRGYYWGQGTTLTVSS VL: DIQMTQSPASLSASVGETVTITCRASENIYSYLAWYQQKQGKSPQLLVYNAKTLAEGVPSRFSGSGSGTQFSLKINSLQPEDFGIYYCQHHYGSPWAFGGGTKLEIK | – | < 1 | < 1 | < 1
